From publication PMC6602974 (2019)

B1: DH727.2 monoclonal antibody (IgG1) (antibody, V domains shown)
VH: QVQLVQSGAEVKKPGASVKLSCKASGNTFSIYGISWVRQAPGQGLEWMGGIIPPAGLTNYVQRFQGRVTITADTSTTTVYMELSSLTSEDTAVYYCAIRIGRGFDYWGQGVLVTVSS
VL: DIVMTQSPLSLPVTPGETASISCRSSQSLLDSEDGNTYLEWYLQKPGQSPQALIYEASNRASGVPDRFSGSGSDTDFTLKISRVEAEDVGIYYCMQTIEYPFTFGPGTKVDIK
B2: DH753 monoclonal antibody (IgG1) (antibody, V domains shown)
VH: EVHLVESGGGLVQPGGSLRLSCEVSGLTFSNSWMSWVRQAPGKGLEWVGFIKTKADGGTAAYAESVKGRFTISRDDSKNTVFLQMKSLKTEDTAVYYCQGAVVISHEYIEIWGQGALVTVSS
VL: QSVLTQPPSASEAARKSVTISCSGGSSNIGDDSVSWYQQVPGTAPKLLIYYNDRRASGVSDRFSGSKSGTSASLAINGLQSEDEADYYCAAWDDSLSAYIFGSGTRLTVL
B3: CH505 transmitted founder gp120 (domain or fragment)
chain: not shown

Experiments:
[1] = molecular target: B3; assay: SPR
[2] = molecular target: DH796.1; assay: SPR

Row | Binder | Kd [1] | Kd [2]
1 | B1 | 10.9 nM | –
2 | B2 | 1.2 nM | –
3 | B3 | – | 253 nM
